Experimental data taken from PMC8316464, “Structures of the ApoL1 and ApoL2 N-terminal domains reveal a non-classical four-helix bundle motif” (Communications Biology, 2021).

T1: Bfl-1 (human, UniProt Q16548 1-175)
T1 construct: Bfl-1 (Bcl-2-related protein A1), human recombinant; also called Bcl-2-related protein A1; source: bought: R&D Systems
T1 sequence (looked up): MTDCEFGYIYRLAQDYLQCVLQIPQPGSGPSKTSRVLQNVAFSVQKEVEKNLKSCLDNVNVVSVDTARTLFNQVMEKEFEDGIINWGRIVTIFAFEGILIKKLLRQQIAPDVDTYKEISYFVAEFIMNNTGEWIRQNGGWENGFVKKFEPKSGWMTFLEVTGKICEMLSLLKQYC

T2: Bcl-w (human, UniProt Q92843 1-193)
T2 construct: Bcl-w, human recombinant; source: bought: R&D Systems
T2 sequence (looked up): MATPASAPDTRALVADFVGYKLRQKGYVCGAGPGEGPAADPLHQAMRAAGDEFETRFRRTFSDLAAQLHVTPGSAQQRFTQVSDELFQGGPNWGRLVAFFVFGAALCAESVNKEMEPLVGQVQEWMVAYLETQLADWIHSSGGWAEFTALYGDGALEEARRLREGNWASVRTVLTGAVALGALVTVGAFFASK

T3: ApoL1-peptide (BH3-like peptide E152–H169) (human, UniProt O14791)
T3 construct: Apolipoprotein L1, human, residues E152-H169; also called ApoL1-BH3 peptide; BH3 peptide; source: synthetic peptide (NEO Scientific)
T3 chain: EDNIRRLRALADGVQKVH


How the values were obtained:
ApoL3-Myc-Flag = target: T4, ApoL3-Myc-Flag (Homo sapiens, UniProt O95236); experiment: immunoprecipitation; 20 µg antibody pre-immobilised on Dynabeads Protein G, incubated 20 min at RT with M-PER lysates of cells expressing ApoL1-6 (35 µg total protein for ApoL1-3, 500 µg for ApoL4-6); four washes PBS/0.02% Tween-20; blot with anti-ApoL1/2 or anti-Myc; conditions: one partner purified
T4 construct: Apolipoprotein L3, human; The homology model (not this construct) used isoform 1, NP_663615.1; source: COS7, transiently transfected; in lysate (immunoprecipitation) or in fixed, permeabilized cells (immunofluorescence); not shown: Myc, C-terminal, kept; FLAG, C-terminal, kept
T4 sequence (O95236 whole entry, canonical isoform): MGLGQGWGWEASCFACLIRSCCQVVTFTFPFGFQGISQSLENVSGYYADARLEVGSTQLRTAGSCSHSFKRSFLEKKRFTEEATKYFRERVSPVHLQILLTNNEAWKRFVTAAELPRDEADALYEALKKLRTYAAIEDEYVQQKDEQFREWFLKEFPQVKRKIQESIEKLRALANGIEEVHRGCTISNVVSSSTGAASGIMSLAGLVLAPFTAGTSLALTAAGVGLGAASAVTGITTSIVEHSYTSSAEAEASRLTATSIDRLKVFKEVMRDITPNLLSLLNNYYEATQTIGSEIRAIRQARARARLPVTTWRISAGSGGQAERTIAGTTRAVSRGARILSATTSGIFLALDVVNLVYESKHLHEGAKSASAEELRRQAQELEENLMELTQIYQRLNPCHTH

[1] = target: T5, human untagged ApoL2 expressed in COS7 cells (Homo sapiens, UniProt Q9BQE5); experiment: as above; conditions: one partner purified
T5 construct: Apolipoprotein L2, human, untagged; source: COS7, transiently transfected; in lysate (immunoprecipitation) or in fixed, permeabilized cells (immunofluorescence)
T5 sequence (Q9BQE5 whole entry): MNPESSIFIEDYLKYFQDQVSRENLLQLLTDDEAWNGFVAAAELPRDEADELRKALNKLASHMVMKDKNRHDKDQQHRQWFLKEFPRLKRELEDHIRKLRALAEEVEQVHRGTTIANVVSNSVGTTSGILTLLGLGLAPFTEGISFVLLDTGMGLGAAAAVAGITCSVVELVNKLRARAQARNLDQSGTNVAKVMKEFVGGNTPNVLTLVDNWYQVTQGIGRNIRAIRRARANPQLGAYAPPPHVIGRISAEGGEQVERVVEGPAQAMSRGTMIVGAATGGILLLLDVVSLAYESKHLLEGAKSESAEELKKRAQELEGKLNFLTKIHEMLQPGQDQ

[2] = target: T6, full-length ApoL1 with N-terminal flag-tag (human, UniProt O14791-1); experiment: SPR; Biacore T200; anti-ApoL1 antibodies captured (~250 RU) by anti-murine Fc antibody on a CM5 chip; ApoL1 0.8–500 nM injected in HBS-P (10 mM HEPES pH 7.4, 150 mM NaCl, 0.005% P20) at 37 °C, 100 µl/min; 1:1 Langmuir model; KD = koff/kon; conditions: both partners purified
T6 construct: also called Apolipoprotein L1; not shown: FLAG, N-terminal, kept
T6 sequence (O14791 28-398): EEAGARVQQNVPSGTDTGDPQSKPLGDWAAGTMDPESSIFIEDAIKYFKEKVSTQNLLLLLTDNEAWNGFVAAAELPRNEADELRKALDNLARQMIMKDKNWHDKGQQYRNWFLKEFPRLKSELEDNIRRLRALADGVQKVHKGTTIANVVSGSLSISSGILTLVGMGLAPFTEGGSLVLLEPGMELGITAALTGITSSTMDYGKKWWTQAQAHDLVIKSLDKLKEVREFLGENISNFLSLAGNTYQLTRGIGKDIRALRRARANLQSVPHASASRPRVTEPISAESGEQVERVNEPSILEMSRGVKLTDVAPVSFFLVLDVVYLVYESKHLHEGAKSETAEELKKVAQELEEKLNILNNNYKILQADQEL

ApoL4-Myc = target: T7, ApoL4-Myc (Homo sapiens, UniProt Q9BPW4); experiment: immunostaining of cells or tissue; transiently transfected COS7 cells fixed (3% paraformaldehyde) and permeabilized (0.1% Triton-X-100); mouse anti-ApoL1 antibodies at 2 µg/ml in PBS, 1 h, room temperature; Alexa488-anti-mouse; co-stained with anti-myc; conditions: one partner purified
T7 construct: Apolipoprotein L4, human; The homology model (not this construct) used isoform 2, NP_663693; source: COS7, transiently transfected; in lysate (immunoprecipitation) or in fixed, permeabilized cells (immunofluorescence); not shown: Myc, C-terminal, kept
T7 sequence (Q9BPW4 22-351): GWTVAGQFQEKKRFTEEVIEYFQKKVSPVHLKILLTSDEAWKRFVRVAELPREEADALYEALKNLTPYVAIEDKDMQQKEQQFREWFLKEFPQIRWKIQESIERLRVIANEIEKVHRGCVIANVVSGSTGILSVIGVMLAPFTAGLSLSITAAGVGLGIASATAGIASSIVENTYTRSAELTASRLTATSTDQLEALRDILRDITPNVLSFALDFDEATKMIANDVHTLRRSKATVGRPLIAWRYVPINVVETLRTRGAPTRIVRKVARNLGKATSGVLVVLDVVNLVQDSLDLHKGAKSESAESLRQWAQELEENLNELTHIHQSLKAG

[3] = target: T8, ApoL2-NTD (N2-T113), His tag removed (human, UniProt Q9BQE5); experiment: crystal structure; Fab complexes formed with 1.5 molar excess of NTD and purified on Superdex-200 in 0.15 M NaCl, 25 mM Tris pH 8.0, about 10 mg/ml; Fab7D6 also crystallised with the synthetic peptide E152–H169; conditions: both partners purified
T8 construct: Apolipoprotein L2, human, N-terminal domain residues N2-T113, Genbank NP_112092.2; source: Sf9 insect cells (baculovirus), purified (Ni resin, S75, TEV digestion, S75)
T8 sequence (Q9BQE5 other isoform, or with tags, fused parts or gaps): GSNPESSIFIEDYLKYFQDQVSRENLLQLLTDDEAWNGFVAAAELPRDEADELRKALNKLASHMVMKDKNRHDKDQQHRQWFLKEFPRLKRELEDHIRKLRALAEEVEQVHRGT

Bfl-1 = target: T1, Bfl-1; experiment: SPR; Biacore S200; Bcl-2 family proteins immobilised on CM5 (amine coupling or His-Capture Kit); peptides and flag-tagged proteins as analytes, single-cycle kinetics, HBS-EP, 25 °C; 1:1 Langmuir model; absence of binding probed at 100 nM and 3 µM; conditions: both partners purified
Bcl-w = target: T2, Bcl-w; experiment: as above; conditions: both partners purified
[4] = target: T9, flag-tagged ApoL1-NTD (D61–T172) (human, UniProt O14791); experiment: SEC-MALS; XBridge BEH 200 Å column in PBS, 0.02% sodium azide, 1 ml/min; complex formed with a twofold molar excess of ApoL1-NTD (46.8 µM) over Fab7D6, 30 min at room temperature; components also run alone; conditions: both partners purified
T9 construct: Apolipoprotein L1, human, N-terminal domain residues D61-T172; E150 variant; the tag is said to be removed only for X-ray studies; source: Sf9 insect cells (baculovirus), purified (anti-flag resin, S75 size exclusion)
T9 sequence (O14791 61-172): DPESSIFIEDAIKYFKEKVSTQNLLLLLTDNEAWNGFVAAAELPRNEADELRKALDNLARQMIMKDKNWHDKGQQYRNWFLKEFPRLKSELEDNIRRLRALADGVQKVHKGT

[5] = target: T3, ApoL1-peptide (BH3-like peptide …); experiment: crystal structure; Fab complexes formed with 1.5 molar excess of NTD and purified on Superdex-200 in 0.15 M NaCl, 25 mM Tris pH 8.0, about 10 mg/ml; Fab7D6 also crystallised with the synthetic peptide E152–H169; conditions: both partners purified

Binder	Kd [2] [nM]	Kd (Bfl-1) [nM]	Kd (Bcl-w) [nM]	further results
Fab6D12 (Fab, V domains shown, Chimeric Fab: mouse variable domains on human constant domains; also called Fab of Ab6D12; 3.6D12 Fab; source: E. coli strain 64B4, secreted into the periplasm, purified (protein G, SP Sepharose, Superdex 75)) VH: EVMLVESGGGLVRPGGSLKLSCTASGFTFSRCAMSWVRQTPEKRLEWVSAISRDSTYTYYSDSVKGRFTVSRDNAKNTLYLQMSSLRSEDTAMYYCARQIDDYYVDALDYWGQGTSVTVSS VL: DVQITQSPSYLAASPGETITINCRASKIISKYLAWYQEKPGKTIKLLIYSGFTLQSGIPSRFSGSGSGTDFTLTISSLEPEDFAMYYCQQHNEYPLTFGAGTKLEIK	–	–	–	binding result [3]: binds
DMRPEIWIIQELRRIGDEFNAYYAR (also called Bim (A149A) (as printed in the methods); source: synthetic peptide (ABclonal, >95% purity)) [Bim (A149I) peptide]	–	18.8	23.1	–
ESQEDIIRNIARHLAQVGDSMDRSI (Bid, BH3-only motif, residues 77-101; source: synthetic peptide (ABclonal, >95% purity)) [Bid BH3 peptide (25-mer, residues 77-101)]	–	0.31	24.2	–
ESQEDIIRNIIRHLAQVGDSMDRSI (source: synthetic peptide (ABclonal, >95% purity)) [Bid (A87I) peptide]	–	1430	65.2	–
Fab7D6 (Fab, V domains shown, Chimeric Fab: mouse variable domains on human constant domains; also called Fab of Ab7D6; 3.7D6 Fab; source: E. coli strain 64B4, secreted into the periplasm, purified (protein G, SP Sepharose, Superdex 75)) VH: QIQLVQSGPDLKKPGETVKISCRTSGYAFTNYGVNWVKQAPGKGLKWMGWINTNTGQTTYAEEFRGRFAISLETSASTAFLTISNLKNEDSATYFCARLIYDGDYISSDFWGQGTTLTVSS VL: DIQMTQSPDSLSASVGETVTITCGASENIYGALNWYQRKQGKSPQLLIYGATNLADGMSSRFSGSRSGRQYSLKISSLHPDDVATYYCQNALSMPYTFGGGTNLETK	–	–	–	stoichiometry N [4]: 1; binding result [5]: binds
Ab7D6 (antibody, V domains shown, mouse VH, as the variable part of the heavy chain of m3; mouse heavy chain constant region; mouse VL, as the variable part of the light chain of m3; mouse light chain constant region; Mouse anti-human ApoL1 antibody; also called 3.7D6) VH: QIQLVQSGPDLKKPGETVKISCRTSGYAFTNYGVNWVKQAPGKGLKWMGWINTNTGQTTYAEEFRGRFAISLETSASTAFLTISNLKNEDSATYFCARLIYDGDYISSDFWGQGTTLTVSS VL: DIQMTQSPDSLSASVGETVTITCGASENIYGALNWYQRKQGKSPQLLIYGATNLADGMSSRFSGSRSGRQYSLKISSLHPDDVATYYCQNALSMPYTFGGGTNLETK	1.63	–	–	–

Second part, led by results:

Kd [2] [nM]	Kd (Bfl-1) [nM]	Kd (Bcl-w) [nM]	Binder	further results
0.86	–	–	Ab6D12 (antibody, V domains shown, mouse VH, as the variable part of the heavy chain of m1; mouse heavy chain constant region; mouse VL, as the variable part of the light chain of m1; mouse light chain constant region; Mouse anti-human ApoL1 antibody; also called 3.6D12; murine Ab6D12) VH: EVMLVESGGGLVRPGGSLKLSCTASGFTFSRCAMSWVRQTPEKRLEWVSAISRDSTYTYYSDSVKGRFTVSRDNAKNTLYLQMSSLRSEDTAMYYCARQIDDYYVDALDYWGQGTSVTVSS VL: DVQITQSPSYLAASPGETITINCRASKIISKYLAWYQEKPGKTIKLLIYSGFTLQSGIPSRFSGSGSGTDFTLTISSLEPEDFAMYYCQQHNEYPLTFGAGTKLEIK	binding result (ApoL3-Myc-Flag): binds; binding result [1]: binds; binding result (ApoL4-Myc): binds
1.56	–	–	Ab3B6 (antibody, V domains shown, mouse VH, as the variable part of the heavy chain of m2; mouse heavy chain constant region; mouse VL, as the variable part of the light chain of m2; mouse light chain constant region; Mouse anti-human ApoL1 antibody; also called 3.3B6) VH: QVQLQQSGAELARPGASVKLSCKASGYTFTSHWMQWLKQRPGQGLEWIGAIYPGDGDTKFTQKFKDKATLTADKSSTTAYMQLSSLASEDSAVYYCARENLYGYYFDYWGQGTTLTVSS VL: QAVVTQESALTTSPGETVTLTCRSSTGAVTSGNFANWVQEKPDHLFTGLIGGADNRAPGVPARFSGSLIGDKAALIITGAQTEDEAIYFCALWYSDHWVFGGGTKLTVL	binding result (ApoL3-Myc-Flag): binds; binding result [1]: binds
